Measurements as given in publication PMC4150762, “The DEAD-box helicase Ded1 from yeast is an mRNP cap-associated protein that shuttles between the cytoplasm and nucleus” (Nucleic Acids Research, 2014).
Where two headings read alike, the source gives them in different places.

Assays:
Ded1-His6 [1] = molecular target: T1, Ded1-His6 (S. cerevisiae, UniProt P06634 1-604)
Ded1-His6 [2] = molecular target: T1, Ded1-His6; assay: pull-down; purified GST-eIF4G1 fragments bound to glutathione Sepharose beads, incubated with Ded1, eluted with 10 mM reduced glutathione; Coomassie-stained SDS PAGE, verified by western blot for Ded1; same results with or without RNase I or AMP-PNP; conditions: both partners purified
Ded1-His6 [3] = molecular target: T1, Ded1-His6; assay: cell-based or functional assay
eIF4G9 = molecular target: T2, eIF4G9 (S. cerevisiae, UniProt P39935 160-492); assay: pull-down; 7-methyl-GTP Sepharose beads loaded with 5 μg purified eIF4E or Cbp20, 5 μg of the purified proteins added with 50 U RNase I, 90 min on ice, TpB buffer (20 mM HEPES pH 7.9, 100 mM KCl, 2 mM MgCl2, 2 mM DTT), eluted with 1 mM 7-methyl-GTP; Coomassie-stained SDS PAGE; conditions: both partners purified
T2 construct: also called eIF4G9 fragment (160–492); shorten version of eIF4G1; source: E. coli (pGEX-1λT), purified
T2 sequence (looked up): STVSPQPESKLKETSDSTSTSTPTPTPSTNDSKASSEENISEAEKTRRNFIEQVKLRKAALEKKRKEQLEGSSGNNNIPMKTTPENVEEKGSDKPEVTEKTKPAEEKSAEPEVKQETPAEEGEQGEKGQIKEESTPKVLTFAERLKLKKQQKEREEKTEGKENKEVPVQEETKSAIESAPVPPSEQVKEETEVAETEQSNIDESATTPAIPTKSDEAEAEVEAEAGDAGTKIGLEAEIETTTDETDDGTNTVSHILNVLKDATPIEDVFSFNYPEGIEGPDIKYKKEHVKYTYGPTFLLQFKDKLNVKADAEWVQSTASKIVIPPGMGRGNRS

T1 sequence (P06634 whole entry, the tested form may be a part): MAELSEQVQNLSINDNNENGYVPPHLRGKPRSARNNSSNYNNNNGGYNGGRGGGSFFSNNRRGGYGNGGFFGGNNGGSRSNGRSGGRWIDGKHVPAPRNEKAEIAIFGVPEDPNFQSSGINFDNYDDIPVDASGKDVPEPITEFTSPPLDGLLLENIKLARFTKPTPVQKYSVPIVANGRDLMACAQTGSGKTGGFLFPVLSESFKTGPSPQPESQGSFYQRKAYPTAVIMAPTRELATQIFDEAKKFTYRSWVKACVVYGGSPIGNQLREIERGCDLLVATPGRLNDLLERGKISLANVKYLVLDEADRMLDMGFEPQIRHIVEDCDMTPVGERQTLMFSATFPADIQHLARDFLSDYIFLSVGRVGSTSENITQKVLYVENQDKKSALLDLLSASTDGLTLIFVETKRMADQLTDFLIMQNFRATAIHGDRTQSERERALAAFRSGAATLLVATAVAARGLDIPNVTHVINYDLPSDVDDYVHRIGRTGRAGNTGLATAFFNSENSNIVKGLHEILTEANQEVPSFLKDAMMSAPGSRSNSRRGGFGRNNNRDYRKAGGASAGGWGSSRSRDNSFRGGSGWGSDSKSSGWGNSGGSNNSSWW

Binder | RNA-dependent ATPase activity, % Ded1 (Ded1-His6 [3]) [%] | also measured
Cbp80 (1–556) (domain or fragment) MFNRKRRGDFDEDENYRDFRPRMPKRQRIPPVVQLCKEMMPDIRTIGESVKAFEDDIKFLSEAIMNEYGHEDYFNNALLSTLNAVVVEQPQKQAAIALLTMVVNSKNNVAGKSIINYFFEELQKWCKQTYNDEFKSTSNETGPWNKIKLILRFLSILSPMFLVDELINIYKSLFELSIELNNLDPGNRVPLSEAIYTNTLLNIPYLFFFNRNNDGLRTKVEELLAYVEQNYLVKTTDINLLREYNGEPPYEMVELVRVVLPNVKKALINNLEQLNELFPDWNHLLTPQTGDEGFNDALTLPSVDDLKSFVRLNKNFGSVDSMWKTPRYAFHVYLPNSAGNFETVVPISTYAGQLFNDIIIDLVESLEFNRKEVARQVITLDLFFKAGIFTEPGESIAQLIATYEENPLAPTFKIEDLAIETILGLIFKLPSVSQPFAYFYTLLVDICQNSPKAIAPVFGRAFRFFYSHLDSLDFELKLRYLDWFSIQMSNFNFSWKWNEWEDDSIKFGKYFYNPKVNFAKNLIQKELRLTSNFSEVEDSLPQEFTKYLDTSYIPRD | – | RNA-dependent ATPase activity, % Ded1 (Ded1-His6 [1]): 220%
1–387-GST fragment of eIF4G1 (domain or fragment, S. cerevisiae, UniProt P39935 1-387, looked up, not among the constructs of the methods) MTDETAHPTQSASKQESAALKQTGDDQQESQQQRGYTNYNNGSNYTQKKPYNSNRPHQQRGGKFGPNRYNNRGNYNGGGSFRGGHMGANSSNVPWTGYYNNYPVYYQPQQMAAAGSAPANPIPVEEKSPVPTKIEITTKSGEHLDLKEQHKAKLQSQERSTVSPQPESKLKETSDSTSTSTPTPTPSTNDSKASSEENISEAEKTRRNFIEQVKLRKAALEKKRKEQLEGSSGNNNIPMKTTPENVEEKGSDKPEVTEKTKPAEEKSAEPEVKQETPAEEGEQGEKGQIKEESTPKVLTFAERLKLKKQQKEREEKTEGKENKEVPVQEETKSAIESAPVPPSEQVKEETEVAETEQSNIDESATTPAIPTKSDEAEAEVEAEAGDA | – | binding result (Ded1-His6 [2]): binds
Pab1 with an amino-terminal His6 tag (natural protein, S. cerevisiae, UniProt P04147 1-577, looked up) MADITDKTAEQLENLNIQDDQKQAATGSESQSVENSSASLYVGDLEPSVSEAHLYDIFSPIGSVSSIRVCRDAITKTSLGYAYVNFNDHEAGRKAIEQLNYTPIKGRLCRIMWSQRDPSLRKKGSGNIFIKNLHPDIDNKALYDTFSVFGDILSSKIATDENGKSKGFGFVHFEEEGAAKEAIDALNGMLLNGQEIYVAPHLSRKERDSQLEETKAHYTNLYVKNINSETTDEQFQELFAKFGPIVSASLEKDADGKLKGFGFVNYEKHEDAVKAVEALNDSELNGEKLYVGRAQKKNERMHVLKKQYEAYRLEKMAKYQGVNLFVKNLDDSVDDEKLEEEFAPYGTITSAKVMRTENGKSKGFGFVCFSTPEEATKAITEKNQQIVAGKPLYVAIAQRKDVRRSQLAQQIQARNQMRYQQATAAAAAAAAGMPGQFMPPMFYGVMPPRGVPFNGPNPQQMNPMGGMPKNGMPPQFRNGPVYGVPPQGGFPRNANDNNQFYQQKQRQALGEQLYKKVSAKTSNEEAAGKITGMILDLPPQEVFPLLESDELFEQHYKEASAAYESFKKEQEQQTEQA | 119 | –
Gle1 (recombinant) (natural protein, S. cerevisiae, UniProt Q12315 1-538, looked up) MRFVFDEVFNSDTDSPEFEETCSTTSSTSSQCPTPEPSPAIKLPSFTKVGTKKLVNESVVILDPALENALRDLNLQSKLIPINEPIVAASSIIVPHSTNMPLPRASHSSLLDNAKNSNATAPLLEAIEESFQRKMQNLVLANQKEIQSIRENKRRVEEQRKRKEEEERKRKEAEEKAKREQELLRQKKDEEERKRKEAEAKLAQQKQEEERKKIEEQNEKERQLKKEHEAKLLQQKDKLGKAVTNFDKISKMFWHYKDKIAQIKQDIVLPIKKADVNVRNLLSRHKRKINPKFGQLTNSNQQLFKIQNELTQLINDTKGDSLAYHWILNFIAKAVVHQAETEVRVKPESALPLGKLTLYLLVQFPELQELFMARLVKKCPFVIGFTCEIDTEKGRQNMGWKRNNENKWEDNTSYDERMGGILSLFAIITRLQLPQEFITTTSHPFPIALSWHILARICNTPLNLITNTHFVILGSWWDAAAVQFLQAYGNQASKLLILIGEELTSRMAEKKYVGAARLRILLEAWQNNNMESFPEMSP | 191 | –
Cbp80 (557–861) (domain or fragment) QLINYYQSLFTGYTVEEDSVRKNDLYFRQEGVPMENTVRKILDYTHKANNSREVTELESILGELKNEYGSIISDFNRFVIILLVQAVTDSGSRSLSHANKYINDLKEDLKTIFAKIELDIETKEYIIIEAVLTFWNANPQTGFLVADAFKYAGLLTSRTIFTFIFNETGLKNNGLIEATAIEAVFRNLSQQISEENESGNNFEFVFERLCTIANSTIDLLDVNADEDIEIPKVNGEMDIDDIEDDKLDLKWKYFTVIGFIKSILRRYSHEYRELADKFIANIDNAIPHESTRRTISNWIQETKEV | – | RNA-dependent ATPase activity, % Ded1 (Ded1-His6 [1]): 144%
eIF4E with an amino-terminal His6 tag (natural protein, S. cerevisiae, UniProt P07260 1-213, looked up, eIF4E (CDC33) of S. cerevisiae cloned into the NdeI-BamHI sites of pET15b; also called CDC33; source: E. coli (pET15b), purified on nickel-agarose) MSVEEVSKKFEENVSVDDTTATPKTVLSDSAHFDVKHPLNTKWTLWYTKPAVDKSESWSDLLRPVTSFQTVEEFWAIIQNIPEPHELPLKSDYHVFRNDVRPEWEDEANAKGGKWSFQLRGKGADIDELWLRTLLAVIGETIDEDDSQINGVVLSIRKGGNKFALWTKSEDKEPLLRIGGKFKQVLKLTDDGHLEFFPHSSANGRHPQPSITL | 105 | binding result (eIF4G9): binds
GST-NAB2-HIS6 (natural protein, S. cerevisiae, UniProt P32505 1-525, looked up) MSQEQYTENLKVIVAEKLAGIPNFNEDIKYVAEYIVLLIVNGGTVESVVDELASLFDSVSRDTLANVVQTAFFALEALQQGESAENIVSKIRMMNAQSLGQSDIAQQQQQQQQQQQPDIAQQQPQQQPQQQPQQQPQQQPQQQPQQQPQQQPQQQPQLQPLQPQLGTQNAMQTDAPATPSPISAFSGVVNAAAPPQFAPVDNSQRFTQRGGGAVGKNRRGGRGGNRGGRNNNSTRFNPLAKALGMAGESNMNFTPTKKEGRCRLFPHCPLGRSCPHAHPTKVCNEYPNCPKPPGTCEFLHPNEDEELMKEMERTREEFQKRKADLLAAKRKPVQTGIVLCKFGALCSNPSCPFGHPTPANEDAKVIDLMWCDKNLTCDNPECRKAHSSLSKIKEVKPISQKKAAPPPVEKSLEQCKFGTHCTNKRCKYRHARSHIMCREGANCTRIDCLFGHPINEDCRFGVNCKNIYCLFRHPPGRVLPEKKGAAPNSNVPTNERPFALPENAIIENAPPQTSFTHQEQDTEMN | 150 | –
GST-eIF4G1 fragment 542-952 (domain or fragment, S. cerevisiae, UniProt P39935 542-952, looked up) SYTSRRDRERGSYRNEEKREDDKPKEEVAPLVPSANRWVPKFKSKKTEKKLAPDGKTELLDKDEVERKMKSLLNKLTLEMFDAISSEILAIANISVWETNGETLKAVIEQIFLKACDEPHWSSMYAQLCGKVVKELNPDITDETNEGKTGPKLVLHYLVARCHAEFDKGWTDKLPTNEDGTPLEPEMMSEEYYAAASAKRRGLGLVRFIGFLYRLNLLTGKMMFECFRRLMKDLTDSPSEETLESVVELLNTVGEQFETDSFRTGQATLEGSQLLDSLFGILDNIIQTAKISSRIKFKLIDIKELRHDKNWNSDKKDNGPKTIQQIHEEEERQRQLKNNSRSNSRRTNNSSNRHSFRRDAPPASKDSFITTRTYSQRNSQRAPPPKEEPAAPTSTATNMFSALMGESDDEE | 141 | –
GST-eIF4G1 fragment 1-596 (domain or fragment, S. cerevisiae, UniProt P39935 1-596, looked up) MTDETAHPTQSASKQESAALKQTGDDQQESQQQRGYTNYNNGSNYTQKKPYNSNRPHQQRGGKFGPNRYNNRGNYNGGGSFRGGHMGANSSNVPWTGYYNNYPVYYQPQQMAAAGSAPANPIPVEEKSPVPTKIEITTKSGEHLDLKEQHKAKLQSQERSTVSPQPESKLKETSDSTSTSTPTPTPSTNDSKASSEENISEAEKTRRNFIEQVKLRKAALEKKRKEQLEGSSGNNNIPMKTTPENVEEKGSDKPEVTEKTKPAEEKSAEPEVKQETPAEEGEQGEKGQIKEESTPKVLTFAERLKLKKQQKEREEKTEGKENKEVPVQEETKSAIESAPVPPSEQVKEETEVAETEQSNIDESATTPAIPTKSDEAEAEVEAEAGDAGTKIGLEAEIETTTDETDDGTNTVSHILNVLKDATPIEDVFSFNYPEGIEGPDIKYKKEHVKYTYGPTFLLQFKDKLNVKADAEWVQSTASKIVIPPGMGRGNRSRDSGRFGNNSSRGHDFRNTSVRNMDDRANSRTSSKRRSKRMNDDRRSNRSYTSRRDRERGSYRNEEKREDDKPKEEVAPLVPSANRWVPKFKSKKTEKKLAPDG | 206 | –
GST-eIF4G1 fragment 882-952 (domain or fragment, S. cerevisiae, UniProt P39935 882-952, looked up, eIF4G1 of S. cerevisiae, residues 882-952; also called 882–952 fragment; source: E. coli (pGEX-2T), purified on glutathione Sepharose; not shown: GST, N-terminal, kept) RSNSRRTNNSSNRHSFRRDAPPASKDSFITTRTYSQRNSQRAPPPKEEPAAPTSTATNMFSALMGESDDEE | – | binding result (Ded1-His6 [2]): binds
